In PMC2836542 (International Journal of Biological Sciences, 2010):

Biological target: E2F-1/Y411A (UniProt Q01094 1-437, Y411A)
Test: co-IP

Chain of E2F-1/Y411A (Q01094 whole entry Y411A): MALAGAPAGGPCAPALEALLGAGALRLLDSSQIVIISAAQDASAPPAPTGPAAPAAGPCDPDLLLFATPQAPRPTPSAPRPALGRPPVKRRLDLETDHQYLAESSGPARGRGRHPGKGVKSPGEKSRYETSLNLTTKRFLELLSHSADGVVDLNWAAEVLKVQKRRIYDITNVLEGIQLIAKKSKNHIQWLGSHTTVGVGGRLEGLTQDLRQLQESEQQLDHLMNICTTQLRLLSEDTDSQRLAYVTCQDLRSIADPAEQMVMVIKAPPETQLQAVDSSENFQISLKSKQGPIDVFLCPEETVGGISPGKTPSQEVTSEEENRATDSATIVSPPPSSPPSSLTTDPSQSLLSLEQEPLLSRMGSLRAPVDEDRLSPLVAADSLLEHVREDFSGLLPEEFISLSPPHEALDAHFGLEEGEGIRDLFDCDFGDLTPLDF

B1: pRB (natural protein, mouse (endogenous in ψ-CRE), UniProt P13405 1-921, looked up)
chain: MPPKAPRRAAAAEPPPPPPPPPREDDPAQDSGPEELPLARLEFEEIEEPEFIALCQKLKVPDHVRERAWLTWEKVSSVDGILEGYIQKKKELWGICIFIAAVDLDEMPFTFTELQKSIETSVYKFFDLLKEIDTSTKVDNAMSRLLKKYNVLCALYSKLERTCELIYLTQPSSALSTEINSMLVLKISWITFLLAKGEVLQMEDDLVISFQLMLCVVDYFIKFSPPALLREPYKTAAIPINGSPRTPRRGQNRSARIAKQLENDTRIIEVLCKEHECNIDEVKNVYFKNFIPFINSLGIVSSNGLPEVESLSKRYEEVYLKNKDLDARLFLDHDKTLQTDPIDSFETERTPRKNNPDEEANVVTPHTPVRTVMNTIQQLMVILNSASDQPSENLISYFNNCTVNPKENILKRVKDVGHIFKEKFANAVGQGCVDIGVQRYKLGVRLYYRVMESMLKSEEERLSIQNFSKLLNDNIFHMSLLACALEVVMATYSRSTLQHLDSGTDLSFPWILNVLNLKAFDFYKVIESFIKVEANLTREMIKHLERCEHRIMESLAWLSDSPLFDLIKQSKDGEGPDNLEPACPLSLPLQGNHTAADMYLSPLRSPKKRTSTTRVNSAANTETQAASAFHTQKPLKSTSLALFYKKVYRLAYLRLNTLCARLLSDHPELEHIIWTLFQHTLQNEYELMRDRHLDQIMMCSMYGICKVKNIDLKFKIIVTAYKDLPHAAQETFKRVLIREEEFDSIIVFYNSVFMQRLKTNILQYASTRPPTLSPIPHIPRSPYKFSSSPLRIPGGNIYISPLKSPYKISEGLPTPTKMTPRSRILVSIGESFGTSEKFQKINQMVCNSDRVLKRSAEGGNPPKPLKKLRFDIEGADEADGSKHLPAESKFQQKLAEMTSTRTRMQKQRMNESKDVSNKEEK
  fold less binding than E2F-1/wt: 5 fold less
